{
  "source": "paper PMC11602160",
  "about": "“Modulation of UPF1 catalytic activity upon interaction of SARS-CoV-2 Nucleocapsid protein with factors involved in nonsense mediated-mRNA decay” (Nucleic Acids Research, 2024)",
  "binders": {"B1": {"name": "UPF2 truncated construct lacking 120 and 45 residues at the N- and C-termini (domain or fragment, human, UniProt Q9HAU5 121-1227, looked up)", "chain": "MKEKEESIQLHQEAWERHHLRKELRSKNQNAPDSRPEENFFSRLDSSLKKNTAFVKKLKTITEQQRDSLSHDFNGLNLSKYIAEAVASIVEAKLKISDVNCAVHLCSLFHQRYADFAPSLLQVWKKHFEARKEEKTPNITKLRTDLRFIAELTIVGIFTDKEGLSLIYEQLKNIINADRESHTHVSVVISFCRHCGDDIAGLVPRKVKSAAEKFNLSFPPSEIISPEKQQPFQNLLKEYFTSLTKHLKRDHRELQNTERQNRRILHSKGELSEDRHKQYEEFAMSYQKLLANSQSLADLLDENMPDLPQDKPTPEEHGPGIDIFTPGKPGEYDLEGGIWEDEDARNFYENLIDLKAFVPAILFKDNEKSCQNKESNKDDTKEAKESKENKEVSSPDDLELELENLEINDDTLELEGGDEAEDLTKKLLDEQEQEDEEASTGSHLKLIVDAFLQQLPNCVNRDLIDKAAMDFCMNMNTKANRKKLVRALFIVPRQRLDLLPFYARLVATLHPCMSDVAEDLCSMLRGDFRFHVRKKDQINIETKNKTVRFIGELTKFKMFTKNDTLHCLKMLLSDFSHHHIEMACTLLETCGRFLFRSPESHLRTSVLLEQMMRKKQAMHLDARYVTMVENAYYYCNPPPAEKTVKKKRPPLQEYVRKLLYKDLSKVTTEKVLRQMRKLPWQDQEVKDYVICCMINIWNVKYNSIHCVANLLAGLVLYQEDVGIHVVDGVLEDIRLGMEVNQPKFNQRRISSAKFLGELYNYRMVESAVIFRTLYSFTSFGVNPDGSPSSLDPPEHLFRIRLVCTILDTCGQYFDRGSSKRKLDCFLVYFQRYVWWKKSLEVWTKDHPFPIDIDYMISDTLELLRPKIKLCNSLEESIRQVQDLEREFLIKLGLVNDKDSKDSMTEGENLEEDEEEEEGGAETEEQSGNESEVNEPEEEEGSDNDDDEGEEEEEENTDYLTDSNKENETDEENTEVMIKGGGLKHVPCVEDEDFIQALDKMMLENLQQRSGESVKVHQLDVAIPLHLKSQLRKGPPLGGGEGEAESADTMPFVMLTRKGNKQQFKILNVPMSSQLAANHWNQQQAEQEERMRMKKLTLDINERQEQED", "notes": "human UPF2 lacking 120 residues at the N-terminus and 45 residues at the C-terminus"}},
  "target": "T1, full-length GST-tagged SARS-CoV-2 Nucleocapsid (N) protein (SARS-CoV-2, UniProt P0DTC9 1-419)",
  "T1 construct": "SARS-CoV-2 Nucleocapsid (N) protein, full length; also called GST-N",
  "assay": "pull-down",
  "conditions": "both partners purified",
  "data": [
    {"binder": "B1", "values": [
      {"measurement": "binding result", "value": "binds"}
    ]}
  ]
}
